# Data as given in the supplement of paper PMC9170038.
# Test system: MS2 coat protein
# Test: apparent KD of MS2 coat protein; designed switch direction (-1 OFF switch, 1 ON switch): -1; higher = weaker reporter binding
# In short: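 On Illumina chips, designed RNA switches with common flanks were made by stalled E. coli RNA polymerase. Titrations with SNAP-549-labelled MS2 coat protein, doubling from 0.7 or 1.5 nM to 3 µM, were done with no input, with 200 uM small-molecule ligand, or with an oligonucleotide input. Apparent KD is the median per design over clusters, from curve fits of normalised cluster fluorescence.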
# [1] = Eterna round: R95, input ligand: FMN 200 uM
# [2] = Eterna round: R95, input ligand: microRNA oligo, concentration not stated
# [3] = Eterna round: R95, input ligand: none
# [4] = input ligand: microRNA oligo, concentration not stated
Sequence,apparent KD of MS2 coat protein [1],apparent KD of MS2 coat protein [2],apparent KD of MS2 coat protein [3],apparent KD of MS2 coat protein (input ligand: FMN 200 uM),apparent KD of MS2 coat protein (input ligand: none),apparent KD of MS2 coat protein [4]
"AUAGGCUUUUAUAUCCUUAACAUGAGGAUCACCCAUGUUCGUCUUAUGAUGGUCUGAUCCCUGAGGAUCGGACCGUU [JL-sv1-2.05 Brourd Mod] (puzzle: Sensor v3, turn-off variant 1)",32.3 nM,134 nM,35.4 nM,–,–,–
"UUUAGUUCAGGAUAUGUAGACAUUAACAUGAGGAUCACCCAUGUAGAUCCUGAAUUAACUACAGAAGGGAGCAUUU [Mod of Brourd 8 - Jieux - Exclusion 5] (Eterna round: R97, puzzle: Exclusion 5)",–,–,–,19.3 nM,15.3 nM,–
UGCAUCUGAGGAUAUCACAUGUGGAACAUGAGGAUCACCCAUGUGAUCCACAUGCCGUUGUGAGAAGGCAGUAAAA [Isteon] (puzzle: Exclusion 5),–,268 nM,–,–,–,–
"UGUUGUCGCGCAGGAUAUGCAUGAGGAUCACCCAUGCAACCACAUUUAACAUGAGGAUCACCCAUGUAGAAGGGCGGGACAACU [pwkr exNG2 2xF5 1xFMN.3] (Eterna round: R96, puzzle: Exclusion NG 2)",–,–,–,89 nM,31.4 nM,25 nM
"UGUAGAUCUACGCUUGCGUGGAUCUGCUUAGCAAGUGAUACAUGAGGAUCACCCAUGUCCUCAUUUGCUCGUCUUAU [JL turnoff v2 99.01] (puzzle: Sensor v3, turn-off variant 2)",15.7 nM,212 nM,14 nM,–,–,–
"UUUGUCAGCGUCGAAGUUUACAUGAGGAUCACCCAUGUGAUCAACACAGGCAUAUAAUUAGUAAUGAGUUCGUCUUC [Eternabot (L2) Solution 40] (Eterna round: R97, puzzle: Sensor, turn-off variant 1)",–,–,–,24.9 nM,30.2 nM,–
"CCGCUGCAAGGAUAUACUUGCGGUGGUGUUCGAGUUCUUCUACUUGAGGAUCACCCAAGUAGAAGGUGCAAAAC [jl-ex2.4.56 ViennaUCT mod] (Eterna round: R97, puzzle: Exclusion 2)",–,–,–,12.6 nM,13.5 nM,–
AUGGAACAUGAGGAUCACCCAUGUGAGGAUAUGUGAGAAGGAUUUGAGAUGGAGAGGGACAGAAGGCACUAGGA [JR_Exclu1_Sub082] (puzzle: Exclusion 1),–,37.6 nM,–,–,–,–
"CCUGUUCGGGUUGGUUUGGGCGGGACAUGAGGAUCACCCAUGUAGGAUAUUUUGGCUGCCGGUCGGGAGAAGGACAUGCUUGGG [-22.4, -21.3 kcal, 17% A] (Eterna round: R96, puzzle: Exclusion NG 3)",–,–,–,135 nM,98.3 nM,61.3 nM
"CUUAAGUCAGGAUAUCAGGAGCAAGCUUAACGGGCACUCGCUGAGAAGGGACAUGAGGAUCACCCAUGUGCUCG [Eternabot (L2) Solution 17] (Eterna round: R97, puzzle: Exclusion 4)",–,–,–,52.3 nM,24.7 nM,–
"AGUGUGAGGCAGGAUAUGCAAUAUGUAAGUAAUGCAGAAGGGUCUACAUGAGGAUCACCCAUGUGUGCGGUUGA [Ex6 #10] (Eterna round: R97, puzzle: Exclusion 6)",–,–,–,282 nM,192 nM,–
"AACCUAUGAGGAUAUACAUGAGGAUCACCCAUGUGUGAGCGUAUCUCAUCACCAAAUUGUAGAAGGCAUGGCGG [Eternabot (L1) Solution 38] (Eterna round: R97, puzzle: Exclusion 3)",–,–,–,68.3 nM,41.4 nM,–
"GUCAGGUAUCGAGGAUAUGUGAAAGGAAGUGUAACAGAAGGCGAGGGCUUGACAUGAGGAUCACCCAUGUGAAGUGAUUCGAAG [PowerStrip EXNG 1.22] (Eterna round: R96, puzzle: Exclusion NG 1)",–,–,–,51.8 nM,62.9 nM,52.5 nM
"UACCUGAGGCAAAGCUUUAGGUAAACAUGAGGAUCACCCAUGUAGGAUAUGGUAGGCAAAGCUUACCAGAAGGACAUGAAAAUU [Mat - Exclusion NG 3 - Mod of JL - D36] (Eterna round: R96, puzzle: Exclusion NG 3)",–,–,–,333 nM,87.8 nM,53.3 nM
"UGUCAGAUGGUAGGAUAUCCAUAUCGAGUGACCCUUUCCUAACAUGAGGAUCACCCAUGUCGGUGGGAGAAGGGCCGUAUGGUG [salish99_ExNG02_R04_033] (Eterna round: R96, puzzle: Exclusion NG 2)",–,–,–,11.1 nM,15.2 nM,14.2 nM
"UGUAACCUAGGAUAUACAUGAGGAUCACCCAUGUAAUGUAGUAUAGUGUGUGUAAGGUGUAGAAGGAGGAAUGU [LRO-Excl05-23-Smart Aleck] (Eterna round: R97, puzzle: Exclusion 3)",–,–,–,76.2 nM,52.6 nM,–
"ACCUCACAUGAGGAUCACCCAUGUCAGGAUAUCUUUUAAACCGCGAAUCGCGGCGCUGAGAGAAGGGACAUUAA [EX1 #20] (Eterna round: R97, puzzle: Exclusion 1)",–,–,–,108 nM,39.4 nM,–

Sequence,apparent KD of MS2 coat protein [1],apparent KD of MS2 coat protein [2],apparent KD of MS2 coat protein [3],apparent KD of MS2 coat protein (input ligand: FMN 200 uM),apparent KD of MS2 coat protein (input ligand: none),apparent KD of MS2 coat protein [4]
CUUUUGUGAGGAUAUCAGUUGUAAAAAAAUAAAAUUACUACUGAGAAGGCACAUGAGGAUCACCCAUGUUCCUC [salish99_ex4_r3_033] (puzzle: Exclusion 4),–,33.2 nM,–,–,–,–
"GUCAGACGAGGAUAUGAUUAAUAAUACAUGAGGAUCACCCAUGUAAUACUGAUCUAUGGAUCAGAAGGCGUCUGAC [E5/6-A4] (Eterna round: R97, puzzle: Exclusion 5)",–,–,–,15 nM,16.1 nM,–
"AACUGGACAGGAUAUGUUCUUGAGCACUUGAGGAUCACCCAAGUCAUCAAGAACUCAGGCACAGAAGGGUUUAUGC [salish99_ex5_r4_003] (Eterna round: R97, puzzle: Exclusion 5)",–,–,–,19 nM,13.4 nM,–
"UGAGUGCUGCGAGGAUAUACAUGAGGAUCACCCAUGUAAAUGUGUGAGGCUUUGCCUCACACAAUGUAGAAGGCGCAGUACUCU [JL ENG2 1.01] (Eterna round: R96, puzzle: Exclusion NG 2)",–,–,–,–,–,9.17 nM
GUGUACAGAGGAUAUACAUGAGGAUCACCCAUGUGAAUAAGAUAGAAUAAGAUAAAGUGUAGAAGGCUGAGUGU [Excluse me!!! 1 - Jieux - Exclusion 3] (puzzle: Exclusion 3),28.8 nM,35.7 nM,38.4 nM,–,–,–
"UAUGGUUAAGUCAGGAUAUGCACGAAGAGGUCUAUGCAGAAGGGACAUGAGGAUCACCCAUGUAAAGUCGUGUU [Ex4 #72] (Eterna round: R97, puzzle: Brourd's mod of Exclusion 4)",–,–,–,57.3 nM,36.6 nM,–
"CUAGCGAAUGUAGGAUAUCGGACUGUUUCAGUCUGAGAAGGACAUGAGGAUCACCCAUGUGUAGCUACGUGAGUAGCACGCUAG [JL ENG1 3.89] (Eterna round: R96, puzzle: Exclusion NG 1)",–,–,–,58.7 nM,27.5 nM,16.1 nM
AAGUAUAGAGGAUAUAGUAGUUACAACAUGAGGAUCACCCAUGUUCUUCAUAGCGUAGAUCUAGAAGGCUGAUAAA [EX-5 Malc#30] (puzzle: Exclusion 5),265 nM,110 nM,119 nM,–,–,–
UUCUUACAUGAGGAUCACCCAUGUCAGGAUAUCUCCUCACUGCGCUUGCGCAGUGAAUAGAGAAGGGACAGGCU [JL ViennaUCT Aner mod 2] (puzzle: Exclusion 1),–,37.3 nM,–,–,–,–
"UCUCCCGCUCGAGGAUAUCCAUAGAGCAACUGAGGAGAAGGCGAGCGUCCUAAACAUGAGGAUCACCCAUGUGACCUCCCGAAC [Zabiledila] (Eterna round: R96, puzzle: Exclusion NG 1)",–,–,–,55 nM,39.1 nM,41.2 nM
"GCAAGCUUUUCGAUCCUCUACAUGAGGAUCACCCAUGUGCUCGAAUUGUUUGGUACUAUCACGAAAGUGAUAGUACA [Sensor, turn off variant 1 v.4] (Eterna round: R97, puzzle: Sensor, turn-off variant 1)",–,–,–,936 nM,1150 nM,–
GGUUGGCGAGGAUAUACAUGAGGAUCACCCAUGUGAGAGAAAAGAGUGAGAACGAAAAGUAGAAGGCGCUGACG [salish99_ex3_r3_059] (puzzle: Exclusion 3),60 nM,112 nM,207 nM,–,–,–
"CCUCGACAUGAGGAUCACCCAUGUAAGGAUAUAAGUGCAGAGGGCGCGUAAUUAAUCGUGAGAAGGUACAACAC (Eterna round: R97, puzzle: Exclusion 1)",–,–,–,32.1 nM,31.1 nM,–
"AGCCACAGAGGAUAUACAUACAUCCAGUAGUUAAGAAUACUACAUGAGGAUCACCCAUGUAGAAGGCUGUGGCA [Omei Ex2 BD B6] (Eterna round: R97, puzzle: Exclusion 2)",–,–,–,383 nM,84.3 nM,–
AAGAAACAUGAGGAUCACCCAUGUGAGGAUAUGAAAAAGAAAAGAAAAGAAAGAAGUUUCAGAAGGCACAAAGG [salish99-ex1_r3_024] (puzzle: Exclusion 1),83.8 nM,41.2 nM,44.9 nM,–,–,–
"GUCUCACAUGAGGAUCACCCAUGUGAGGAUAUGGUUUCGCUGGCCGUAGCCAGUGGAACCAGAAGGCGCGUGAU [Mat - Exclusion 1 - JL Mod - D18] (Eterna round: R97, puzzle: Exclusion 1)",–,–,–,71.1 nM,65 nM,–
CGUCCUGUAGUCAGGAUAUUGUCUCGGAUACGAAACAAGAAGGGACAUGAGGAUCACCCAUGUAAUCAGGACGA [Malc #30 mod 13] (puzzle: Brourd's mod of Exclusion 4),19.5 nM,36.5 nM,36.5 nM,–,–,–
